Common to all, as to assay: holdup assay
Holding throughout (design): key: below the threshold = too weak to quantify, mostly under pKd 3.1 to 4

The target in test [1] is T1, SIPA1L2, Q9P2F8.
T1 sequence (Q9P2F8 945-1036, limits assumed, looked up): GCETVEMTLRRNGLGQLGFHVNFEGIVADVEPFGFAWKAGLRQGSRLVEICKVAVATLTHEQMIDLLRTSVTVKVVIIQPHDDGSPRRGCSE

Test [2] concerns the target T2, NHERF1_2, O14745.
T2 sequence (O14745 149-244, limits assumed, looked up): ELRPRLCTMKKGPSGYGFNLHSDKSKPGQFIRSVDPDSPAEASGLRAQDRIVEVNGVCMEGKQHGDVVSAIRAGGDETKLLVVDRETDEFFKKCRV
The settings on record: plain residues with an end cap or a label only (N-terminal biotin on a linker: ttds).

The target of test [3] is T3, PDZD7_1, Q9H5P4.
T3 sequence (Q9H5P4 81-178, limits assumed, looked up): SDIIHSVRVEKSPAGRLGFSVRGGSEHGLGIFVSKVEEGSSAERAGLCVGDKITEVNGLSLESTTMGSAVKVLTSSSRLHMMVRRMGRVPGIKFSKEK
The settings on record: plain residues with an end cap or a label only (N-terminal biotin on a linker: ttds).

Test [4] addresses T4, MPDZ_2, O75970.
T4 sequence (O75970 252-347, limits assumed, looked up): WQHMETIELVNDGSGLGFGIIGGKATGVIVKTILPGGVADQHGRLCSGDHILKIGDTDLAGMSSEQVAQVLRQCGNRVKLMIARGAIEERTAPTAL
The settings on record: plain residues with an end cap or a label only (N-terminal biotin on a linker: ttds).

Test [5] has as its target MAGI1_3, Q96QZ7. The settings on record: plain residues with an end cap or a label only (N-terminal biotin on a linker: ttds).
The target in test [6] is PARD3_1, Q8TEW0. The settings on record: plain residues with an end cap or a label only (N-terminal biotin on a linker: ttds).
Test [7] concerns the target T5, PARD6B, Q9BYG5.
T5 sequence (Q9BYG5 152-260, limits assumed, looked up): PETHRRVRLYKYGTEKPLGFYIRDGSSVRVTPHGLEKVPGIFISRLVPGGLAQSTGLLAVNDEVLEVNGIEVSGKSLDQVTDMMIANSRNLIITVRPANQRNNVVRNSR
The settings on record: plain residues with an end cap or a label only (N-terminal biotin on a linker: ttds).

The target in test [8] is T6, GRIP1_1, Q9Y3R0.
T6 sequence (Q9Y3R0 48-146, limits assumed, looked up): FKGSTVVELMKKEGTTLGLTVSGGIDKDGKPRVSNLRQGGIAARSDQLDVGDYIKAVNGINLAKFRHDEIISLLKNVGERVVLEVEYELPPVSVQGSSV
The settings on record: plain residues with an end cap or a label only (N-terminal biotin on a linker: ttds).

The target in test [9] is SDCBP_1, O00560. The settings on record: plain residues with an end cap or a label only (N-terminal biotin on a linker: ttds).
Test [10] has as its target T7, LNX2_4, Q8N448.
T7 sequence (Q8N448 595-690, limits assumed, looked up): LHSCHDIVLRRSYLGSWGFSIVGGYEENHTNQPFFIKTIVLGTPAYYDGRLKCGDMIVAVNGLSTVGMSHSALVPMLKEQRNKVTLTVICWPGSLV
The settings on record: plain residues with an end cap or a label only (N-terminal biotin on a linker: ttds).

In test [11] the target is T8, MAGI2_1, Q86UL8.
T8 sequence (Q86UL8 12-111, limits assumed, looked up): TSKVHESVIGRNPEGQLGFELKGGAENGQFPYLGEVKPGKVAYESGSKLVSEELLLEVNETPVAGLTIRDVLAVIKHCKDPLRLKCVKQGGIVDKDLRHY
The settings on record: plain residues with an end cap or a label only (N-terminal biotin on a linker: ttds).

Test [12] addresses PDZRN4_2, Q6ZMN7. The settings on record: plain residues with an end cap or a label only (N-terminal biotin on a linker: ttds).
Test [13] deals with T9, MPP1, Q00013.
T9 sequence (Q00013 66-162, limits assumed, looked up): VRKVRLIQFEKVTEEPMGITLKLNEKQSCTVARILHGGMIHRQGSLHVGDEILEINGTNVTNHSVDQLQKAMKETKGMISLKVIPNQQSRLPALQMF
The settings on record: plain residues with an end cap or a label only (N-terminal biotin on a linker: ttds).

In test [14] the target is AHNAK2, Q8IVF2. The settings on record: plain residues with an end cap or a label only (N-terminal biotin on a linker: ttds).
In test [15] the target is T10, PDZD2_1, O15018.
T10 sequence (O15018 80-192, limits assumed, looked up): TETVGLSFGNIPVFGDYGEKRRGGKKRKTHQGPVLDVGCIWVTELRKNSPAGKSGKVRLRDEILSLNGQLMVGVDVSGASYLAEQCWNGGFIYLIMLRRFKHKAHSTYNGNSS
The settings on record: plain residues with an end cap or a label only (N-terminal biotin on a linker: ttds).

In test [16] the target is T11, PDZRN3_2, Q9UPQ7.
T11 sequence (Q9UPQ7 414-513, limits assumed, looked up): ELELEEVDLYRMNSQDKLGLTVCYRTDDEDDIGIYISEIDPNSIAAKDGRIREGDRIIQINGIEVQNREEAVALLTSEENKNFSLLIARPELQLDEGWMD
The settings on record: plain residues with an end cap or a label only (N-terminal biotin on a linker: ttds).

Test [17] concerns the target SCRIB_4, Q14160. The settings on record: plain residues with an end cap or a label only (N-terminal biotin on a linker: ttds).
Test [18] concerns the target Inadl_7, Q8NI35. The settings on record: plain residues with an end cap or a label only (N-terminal biotin on a linker: ttds).
In test [19] the target is T12, SHANK2, Q9UPX8.
T12 sequence (Q9UPX8 621-730, limits assumed, looked up): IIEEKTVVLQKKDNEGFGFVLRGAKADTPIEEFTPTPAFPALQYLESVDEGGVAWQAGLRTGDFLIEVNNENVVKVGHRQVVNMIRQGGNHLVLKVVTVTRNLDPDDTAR
The settings on record: plain residues with an end cap or a label only (N-terminal biotin on a linker: ttds).

The target of test [20] is T13, PDZD8, Q8NEN9.
T13 sequence (Q8NEN9 361-459, limits assumed, looked up): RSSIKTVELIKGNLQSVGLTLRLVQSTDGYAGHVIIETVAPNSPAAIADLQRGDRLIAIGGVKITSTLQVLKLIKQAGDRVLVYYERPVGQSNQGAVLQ
The settings on record: plain residues with an end cap or a label only (N-terminal biotin on a linker: ttds).

Test [21] deals with RIMS1, Q86UR5. The settings on record: plain residues with an end cap or a label only (N-terminal biotin on a linker: ttds).
The target of test [22] is T14, PDZD7_2, Q9H5P4.
T14 sequence (Q9H5P4 205-303, limits assumed, looked up): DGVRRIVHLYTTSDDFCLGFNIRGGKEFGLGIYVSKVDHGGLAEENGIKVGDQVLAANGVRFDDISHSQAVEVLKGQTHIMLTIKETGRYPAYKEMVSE
The settings on record: plain residues with an end cap or a label only (N-terminal biotin on a linker: ttds).

[23] abbreviates: plain residues with an end cap or a label only (N-terminal biotin on a linker: ttds).
Setting [24] is: plain residues with an end cap or a label only (N-terminal biotin on a linker: ahx).

RIMS1, Q86UR5, sequence (Q86UR5 584-692): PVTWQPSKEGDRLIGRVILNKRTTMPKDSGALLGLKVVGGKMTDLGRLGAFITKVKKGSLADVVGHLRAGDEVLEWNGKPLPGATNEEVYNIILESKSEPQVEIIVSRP
PARD3_1, Q8TEW0, sequence (Q8TEW0 264-372): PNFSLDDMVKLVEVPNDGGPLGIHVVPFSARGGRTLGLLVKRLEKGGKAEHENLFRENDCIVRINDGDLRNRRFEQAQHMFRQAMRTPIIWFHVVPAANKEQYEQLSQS
PDZRN4_2, Q6ZMN7, sequence (Q6ZMN7 389-498): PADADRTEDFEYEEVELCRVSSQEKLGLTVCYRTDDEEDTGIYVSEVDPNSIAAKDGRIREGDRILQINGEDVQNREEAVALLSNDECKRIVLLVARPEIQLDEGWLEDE
AHNAK2, Q8IVF2, sequence (Q8IVF2 108-193): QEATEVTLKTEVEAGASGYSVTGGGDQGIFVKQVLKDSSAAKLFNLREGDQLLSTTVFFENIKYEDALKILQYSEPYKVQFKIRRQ
SDCBP_1, O00560, sequence (O00560 111-198): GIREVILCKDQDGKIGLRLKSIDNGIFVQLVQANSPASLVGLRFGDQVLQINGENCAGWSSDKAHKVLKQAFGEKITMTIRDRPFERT
MAGI1_3, Q96QZ7, sequence (Q96QZ7 638-725): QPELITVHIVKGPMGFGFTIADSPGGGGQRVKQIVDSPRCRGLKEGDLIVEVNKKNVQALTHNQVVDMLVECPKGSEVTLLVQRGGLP
SCRIB_4, Q14160, sequence (Q14160 1095-1204): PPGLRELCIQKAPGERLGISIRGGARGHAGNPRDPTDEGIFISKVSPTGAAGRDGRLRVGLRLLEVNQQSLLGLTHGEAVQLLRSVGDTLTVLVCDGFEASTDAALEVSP
Inadl_7, Q8NI35, sequence (Q8NI35 1219-1332): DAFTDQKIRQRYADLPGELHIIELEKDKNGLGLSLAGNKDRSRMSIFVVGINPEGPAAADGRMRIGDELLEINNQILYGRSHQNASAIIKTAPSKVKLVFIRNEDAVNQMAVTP

One may read the pKd as the Kd on a negative log10 scale, so that one unit is a factor of ten. For the molecule IYVPEAQTRL [DLGAP4, Q9Y2H0], the pKd entry in test [1] (setting [23]) is “below the threshold”.

For the molecule GQDSREETQL [KCNT2, Q6UVM3], the negative logarithm of the Kd (pKd) entry in test [1] (setting [23]) was “below the threshold”.

Regarding TLSLTDSSVDGIPPYR [AXIN1_int, O15169], the pKd entry in [1] (plain residues with an end cap or a label only (N-terminal biotin on a linker: gsgsgs; C-terminal amide)) was “below the threshold”.

For SVWLRKETRV [CYSLTR2, Q9NS75], the pKd result in test [2] is “below the threshold”; in test [3], “below the threshold”; in [4], “below the threshold”; in [5] it was 5.09; in test [6], “below the threshold”; in [1] (setting [23]), “below the threshold”. Also, the negative logarithm of the Kd (pKd) entry in [7], in test [8], in test [9], in test [10], in [11] and in test [12] was “below the threshold” each time. Moreover, the negative-log Kd (pKd) in test [13] is 6.03; in test [14] it was “below the threshold”; in [15], “below the threshold”; in [16], “below the threshold”; in test [17], 4.91; in test [18], “below the threshold”. The pKd entry in [19], in test [20], in test [21] and in test [22] was “below the threshold” in each case.

Take RSLEEEESQL [GRASP, Q7Z6J2]: the pKd entry in test [2], in test [3], in [4], in test [5], in test [6] and in test [1] (setting [23]) was “below the threshold” throughout. The pKd result in test [7], in test [8], in [9], in test [10], in [11] and in test [12] was “below the threshold” in each case. For the same molecule, the pKd result was “below the threshold” in test [13]; 4.3 in test [14]; “below the threshold” in [15]; “below the threshold” in test [16]; “below the threshold” in test [17]; “below the threshold” in [18]. For the same molecule, the pKd in test [19] was 4.33; in test [20] it was “below the threshold”; in [21] it was “below the threshold”; in test [22], “below the threshold”.

Regarding VLRLQSETSV [VANGL1, Q8TAA9], the pKd result in test [1] (setting [23]) is on record as “below the threshold”.

For TVASEKESVM [SLC1A5, Q15758], the pKd result in [1] (setting [23]) was “below the threshold”.

In the case of IDNDTESTAL [ARHGAP17, Q68EM7], in [1] (setting [23]), the pKd entry is reported as “below the threshold”.

HTHSYIETHV [CNKSR2, Q8WXI2]: the pKd result in [1] (setting [24]) is on record as “below the threshold”.

For PKTPPTDTSV [KIR3DL3, Q8N743], the pKd result in [2], in test [3], in [4], in [5], in [6] and in [1] (setting [23]) was “below the threshold” each time. The pKd entry in test [7], in test [8], in test [9], in test [10], in [11] and in [12] was “below the threshold” in each case. In addition, the pKd entry was “below the threshold” in [13]; “below the threshold” in test [14]; 4.3 in test [15]; “below the threshold” in test [16]; “below the threshold” in test [17]; “below the threshold” in [19]. Also, the figures for the pKd in [20], in [21] and in test [22] were 4.36, “below the threshold” and “below the threshold”, respectively.

ERKLSSESQV [LRP4, O75096]: the pKd entry in test [1] (setting [23]) is “below the threshold”.

Turning to TEAKLTETNA [MYO18A, Q92614], the negative logarithm of the Kd (pKd) result in test [1] (setting [24]) was “below the threshold”.

The values above are taken from article PMC9482650, “Quantitative fragmentomics allow affinity mapping of interactomes” (Nature Communications, 2022).
